Source: the supplement of paper PMC10567573

B1: INTS3 (parent)
chain: DLNSKGKKREFRFHPIKETVVEEP

Variants of: B1
Experiment: protein stability index of a GFP-peptide fusion (GPS, HEK-293T) (PSI 1-6); higher = more stable
Conditions: c terminus: a fixed tail appended
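Also: lentivirally expressed fusions sorted by FACS into six bins by GFP to DsRed ratio, PSI derived from sequencing read proportions per bin multiplied by bin number.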

With DLNSKGKKRESRFHPIKETVVEEP as the variant, how does the protein stability index read?
Its protein stability index is 4.39.

For DLNSKGKKREWRFHPIKETVVEEP, which protein stability index is on record?
The protein stability index was 2.1.

Which protein stability index does the source give for DLNSKGKKREGRFHPIKETVVEEP here?
The protein stability index was 4.32.

With DLNSKGKKREARFHPIKETVVEEP as the variant, how does the protein stability index read?
Its protein stability index is 3.95.

With DLNSKGKKRECRFHPIKETVVEEP as the variant, how does the protein stability index read?
Its protein stability index is 4.47.

Which protein stability index does the source give for DLNSKGKKREQRFHPIKETVVEEP here?
The protein stability index was 4.11.

Which protein stability index does the source give for DLNSKGKKREIRFHPIKETVVEEP here?
The protein stability index was 3.55.

Which protein stability index does the source give for DLNSKGKKRERRFHPIKETVVEEP here?
Its protein stability index is 4.28.

Which protein stability index does the source give for DLNSKGKKREPRFHPIKETVVEEP here?
Its protein stability index is 4.39.

For DLNSKGKKREVRFHPIKETVVEEP, which protein stability index is on record?
Its protein stability index is 4.02.

Which protein stability index does the source give for DLNSKGKKREYRFHPIKETVVEEP here?
The protein stability index was 3.89.

With DLNSKGKKREHRFHPIKETVVEEP as the variant, how does the protein stability index read?
The protein stability index was 4.31.

Which protein stability index does the source give for DLNSKGKKREMRFHPIKETVVEEP here?
Its protein stability index is 4.45.

Which protein stability index does the source give for DLNSKGKKRETRFHPIKETVVEEP here?
Its protein stability index is 4.87.

With DLNSKGKKRELRFHPIKETVVEEP as the variant, how does the protein stability index read?
Its protein stability index is 3.84.

For DLNSKGKKREDRFHPIKETVVEEP, which protein stability index is on record?
Its protein stability index is 4.88.

Which protein stability index does the source give for DLNSKGKKREERFHPIKETVVEEP here?
Its protein stability index is 4.94.

With DLNSKGKKREFRFHPITETVVEEP as the variant, how does the protein stability index read?
Its protein stability index is 2.77.

For DLNSKGKKREFRFHPIPETVVEEP, which protein stability index is on record?
Its protein stability index is 1.98.

For DLNSKGKKREFRFHPIIETVVEEP, which protein stability index is on record?
Its protein stability index is 1.94.

Which protein stability index does the source give for DLNSKGKKREFRFHPIFETVVEEP here?
Its protein stability index is 2.05.

Which protein stability index does the source give for DLNSKGKKREFRFHPIMETVVEEP here?
The protein stability index was 2.69.

Which protein stability index does the source give for DLNSKGKKREFRFHPIVETVVEEP here?
Its protein stability index is 2.69.

Which protein stability index does the source give for DLNSKGKKREFRFHPISETVVEEP here?
The protein stability index was 3.25.

Which protein stability index does the source give for DLNSKGKKREFRFHPIQETVVEEP here?
Its protein stability index is 3.01.

With DLNSKGKKREFRFHPIGETVVEEP as the variant, how does the protein stability index read?
Its protein stability index is 2.91.

Which protein stability index does the source give for DLNSKGKKREFRFHPINETVVEEP here?
Its protein stability index is 2.6.

Which protein stability index does the source give for DLNSKGKKREFRFHPIDETVVEEP here?
The protein stability index was 3.93.

For DLNSKGKKREFRFHPIYETVVEEP, which protein stability index is on record?
Its protein stability index is 2.

For DLNSKGKKREFRFHPIRETVVEEP, which protein stability index is on record?
Its protein stability index is 1.69.

For DLNSKGKKREFRFHPIHETVVEEP, which protein stability index is on record?
The protein stability index was 2.31.

For DLNSKGKKREFRFHPILETVVEEP, which protein stability index is on record?
The protein stability index was 3.26.

For DLNSKGKKREFRFHPIEETVVEEP, which protein stability index is on record?
The protein stability index was 3.48.

Which protein stability index does the source give for DLNSKGKKREFRFHPIAETVVEEP here?
The protein stability index was 2.5.

Which protein stability index does the source give for DLNSKGKKREFRFHPICETVVEEP here?
The protein stability index was 2.67.

For DLNSKGKKREFRFHPIWETVVEEP, which protein stability index is on record?
The protein stability index was 1.8.

For DLNSKGKKRVFRFHPIKETVVEEP, which protein stability index is on record?
The protein stability index was 1.3.

For DLNSKGKKRKFRFHPIKETVVEEP, which protein stability index is on record?
Its protein stability index is 2.88.

Which protein stability index does the source give for DLNSKGKKRPFRFHPIKETVVEEP here?
The protein stability index was 2.55.

With DLNSKGKKRCFRFHPIKETVVEEP as the variant, how does the protein stability index read?
Its protein stability index is 2.97.

For DLNSKGKKRGFRFHPIKETVVEEP, which protein stability index is on record?
Its protein stability index is 2.

For DLNSKGKKRAFRFHPIKETVVEEP, which protein stability index is on record?
The protein stability index was 3.19.

Which protein stability index does the source give for DLNSKGKKRTFRFHPIKETVVEEP here?
The protein stability index was 1.99.

With DLNSKGKKRLFRFHPIKETVVEEP as the variant, how does the protein stability index read?
Its protein stability index is 1.94.

Which protein stability index does the source give for DLNSKGKKRMFRFHPIKETVVEEP here?
Its protein stability index is 1.64.

Which protein stability index does the source give for DLNSKGKKRQFRFHPIKETVVEEP here?
The protein stability index was 1.87.

With DLNSKGKKRRFRFHPIKETVVEEP as the variant, how does the protein stability index read?
Its protein stability index is 1.96.

Which protein stability index does the source give for DLNSKGKKRNFRFHPIKETVVEEP here?
The protein stability index was 2.58.

For DLNSKGKKRWFRFHPIKETVVEEP, which protein stability index is on record?
The protein stability index was 2.1.

For DLNSKGKKRSFRFHPIKETVVEEP, which protein stability index is on record?
Its protein stability index is 1.65.

Which protein stability index does the source give for DLNSKGKKRDFRFHPIKETVVEEP here?
Its protein stability index is 2.7.

Which protein stability index does the source give for DLNSKGKKRIFRFHPIKETVVEEP here?
The protein stability index was 1.78.

For DLNSKGKKRHFRFHPIKETVVEEP, which protein stability index is on record?
The protein stability index was 2.72.

Which protein stability index does the source give for DLNSKGKKRFFRFHPIKETVVEEP here?
The protein stability index was 1.76.

For DLNSKGKKRYFRFHPIKETVVEEP, which protein stability index is on record?
The protein stability index was 1.49.

With DLNSKGKKREFRFHPDKETVVEEP as the variant, how does the protein stability index read?
The protein stability index was 3.02.

For DLNSKGKKREFRFHPAKETVVEEP, which protein stability index is on record?
Its protein stability index is 2.06.

With DLNSKGKKREFRFHPGKETVVEEP as the variant, how does the protein stability index read?
Its protein stability index is 2.29.

For DLNSKGKKREFRFHPRKETVVEEP, which protein stability index is on record?
The protein stability index was 1.77.

Which protein stability index does the source give for DLNSKGKKREFRFHPLKETVVEEP here?
The protein stability index was 2.24.

For DLNSKGKKREFRFHPTKETVVEEP, which protein stability index is on record?
The protein stability index was 2.12.

For DLNSKGKKREFRFHPKKETVVEEP, which protein stability index is on record?
The protein stability index was 2.21.

Which protein stability index does the source give for DLNSKGKKREFRFHPHKETVVEEP here?
Its protein stability index is 2.31.

For DLNSKGKKREFRFHPEKETVVEEP, which protein stability index is on record?
The protein stability index was 2.96.

Which protein stability index does the source give for DLNSKGKKREFRFHPSKETVVEEP here?
Its protein stability index is 1.99.

For DLNSKGKKREFRFHPWKETVVEEP, which protein stability index is on record?
The protein stability index was 2.12.

With DLNSKGKKREFRFHPQKETVVEEP as the variant, how does the protein stability index read?
Its protein stability index is 2.34.

For DLNSKGKKREFRFHPNKETVVEEP, which protein stability index is on record?
The protein stability index was 3.04.

Which protein stability index does the source give for DLNSKGKKREFRFHPPKETVVEEP here?
Its protein stability index is 2.28.

With DLNSKGKKREFRFHPFKETVVEEP as the variant, how does the protein stability index read?
Its protein stability index is 1.88.

For DLNSKGKKREFRFHPMKETVVEEP, which protein stability index is on record?
Its protein stability index is 2.79.

For DLNSKGKKREFRFHPYKETVVEEP, which protein stability index is on record?
The protein stability index was 2.36.

With DLNSKGKKREFRFHPCKETVVEEP as the variant, how does the protein stability index read?
The protein stability index was 1.84.

With DLNSKGKKREFRFHPVKETVVEEP as the variant, how does the protein stability index read?
Its protein stability index is 2.71.

For DLNSKGKKREFRFHAIKETVVEEP, which protein stability index is on record?
The protein stability index was 2.96.

With DLNSKGKKREFRFHGIKETVVEEP as the variant, how does the protein stability index read?
The protein stability index was 3.15.

For DLNSKGKKREFRFHRIKETVVEEP, which protein stability index is on record?
Its protein stability index is 2.9.

Which protein stability index does the source give for DLNSKGKKREFRFHYIKETVVEEP here?
The protein stability index was 2.74.

For DLNSKGKKREFRFHEIKETVVEEP, which protein stability index is on record?
The protein stability index was 3.2.

For DLNSKGKKREFRFHCIKETVVEEP, which protein stability index is on record?
Its protein stability index is 2.54.

Which protein stability index does the source give for DLNSKGKKREFRFHIIKETVVEEP here?
Its protein stability index is 2.65.

For DLNSKGKKREFRFHKIKETVVEEP, which protein stability index is on record?
Its protein stability index is 3.18.

For DLNSKGKKREFRFHMIKETVVEEP, which protein stability index is on record?
Its protein stability index is 2.29.

With DLNSKGKKREFRFHDIKETVVEEP as the variant, how does the protein stability index read?
Its protein stability index is 3.57.

With DLNSKGKKREFRFHQIKETVVEEP as the variant, how does the protein stability index read?
The protein stability index was 2.6.

For DLNSKGKKREFRFHVIKETVVEEP, which protein stability index is on record?
The protein stability index was 3.25.

With DLNSKGKKREFRFHSIKETVVEEP as the variant, how does the protein stability index read?
Its protein stability index is 2.37.

With DLNSKGKKREFRFHHIKETVVEEP as the variant, how does the protein stability index read?
Its protein stability index is 3.09.

With DLNSKGKKREFRFHFIKETVVEEP as the variant, how does the protein stability index read?
Its protein stability index is 2.44.

Which protein stability index does the source give for DLNSKGKKREFRFHTIKETVVEEP here?
Its protein stability index is 2.96.

Which protein stability index does the source give for DLNSKGKKREFRFHWIKETVVEEP here?
Its protein stability index is 2.28.

For DLNSKGKKREFRFHNIKETVVEEP, which protein stability index is on record?
Its protein stability index is 3.65.

For DLNSKGKKREFRFHLIKETVVEEP, which protein stability index is on record?
Its protein stability index is 2.82.

For DLNSKGKYREFRFHPIKETVVEEP, which protein stability index is on record?
Its protein stability index is 2.27.
